The chains are these.
T1: recombinant human CD123-Fc (human, UniProt P26951 19-305)
T1 construct: not shown: Fc part of CD123-Fc
T1 sequence: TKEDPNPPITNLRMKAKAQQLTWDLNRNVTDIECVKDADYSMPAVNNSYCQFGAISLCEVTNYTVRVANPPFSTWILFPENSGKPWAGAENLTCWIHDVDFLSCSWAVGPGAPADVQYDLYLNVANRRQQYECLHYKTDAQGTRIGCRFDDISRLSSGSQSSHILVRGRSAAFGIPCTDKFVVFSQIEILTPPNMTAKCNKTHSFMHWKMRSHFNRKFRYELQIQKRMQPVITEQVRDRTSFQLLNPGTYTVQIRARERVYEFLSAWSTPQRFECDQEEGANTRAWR

B1: SEQ ID NO: 560 (designed binder)
chain: MGSWVEFIMRLDAIYERLDALGGSEAELAEFEWHIADFEDHLQWYKGKGNPEVEALFEEADAIWEELWAYRHN
notes: D domain, on phage
B2: SEQ ID NO: 571 (designed binder)
chain: MGSWAEFDSRLDAIAQRLFALGGSEAELAHFEDFIAQFEYSLQEYKGKGNPEVEALSNEADAIFNELKAYRHN
notes: D domain, on phage
B3: SEQ ID NO: 555 (designed binder)
chain: MGSWEEFDTRLLAIFGRLGALGGSEAELALFEMLIAKFEDDLQNYKGKGNPEVEALSEEAFAIDHELGAYRHN
notes: D domain, on phage
B4: SEQ ID NO: 576 (designed binder)
chain: MGSWMEFEDRLIAIWARLDALGGSEAELAWFEADIADFEESLQEYKGKGNPEVEALIFEAIAINKELMAYRHN
notes: D domain, on phage
B5: SEQ ID NO: 565 (designed binder)
chain: MGSWFEFDQRLDAITFRLWALGGSEAELAEFEDVIALFEYHLQDYKGKGNPEVEALEVEAWAIFHELGAYRHN
notes: D domain, on phage
B6: SEQ ID NO: 582 (designed binder)
chain: MGSWFEFEYRLDAIIDRLFALGGSEAELAEFESMIANFEYSLQEYKGKGNPEVEALYFEADAIVDELTAYRHN
notes: D domain, on phage
B7: SEQ ID NO: 578 (designed binder)
chain: MGSWYEFVSRLDAIEYRLWALGGSEAELAWFEWDIADFEQGLQFYKGKGNPEVEALAQEANAIGSELTAYRHN
notes: D domain, on phage
B8: SEQ ID NO: 572 (designed binder)
chain: MGSWAEFDSRLIAIFDRLWALGGSEAELAWFEDDIAQFEQHLQAYKGKGNPEVEALRQEADAITFELKAYRHN
notes: D domain, on phage
B9: SEQ ID NO: 567 (designed binder)
chain: MGSWYEFWDRLTAIEHRLWALGGSEAELAYFEDSIAHFEGSLQVYKGKGNPEVEALYKEAEAIEWELEAYRHN
notes: D domain, on phage
B10: SEQ ID NO: 551 (designed binder)
chain: MGSWMEFDYRLEAIWMRLIALGGSEAELADFESSIADFEHHLQSYKGKGNPEVEALEWEAFAIGVELDAYRHN
notes: D domain, on phage
B11: SEQ ID NO: 566 (designed binder)
chain: MGSWSEFWFRLDAIEDRLWALGGSEAELAEFEDNIALFEYSLQHYKGKGNPEVEALVKEANAIDDELGAYRHN
notes: D domain, on phage
B12: SEQ ID NO: 561 (designed binder)
chain: MGSWNEFLLRLDAIEHRLFALGGSEAELAEFEWEIADFEDDLQWYKGKGNPEVEALVEEAEAIDVELVAYRHN
notes: D domain, on phage
B13: SEQ ID NO: 559 (designed binder)
chain: MGSWTEFTQRLEAIVDRLFALGGSEAELAEFENSIADFEWDLQWYKGKGNPEVEALNREAVAIDNELWAYRHN
notes: D domain, on phage
B14: SEQ ID NO: 562 (designed binder)
chain: MGSWYEFNMRLGAIDDRLQALGGSEAELAWFEDMIAIFEDDLQIYKGKGNPEVEALEQEAAAIHQELWAYRHN
notes: D domain, on phage
B15: SEQ ID NO: 553 (designed binder)
chain: MGSWEEFYMRLVAIHMRLRALGGSEAELAVFENYIAEFEEYLQYYKGKGNPEVEALTIEADAIGTELGAYRHN
notes: D domain, on phage
B16: SEQ ID NO: 564 (designed binder)
chain: MGSWYEFYERLWAIDDRLWALGGSEAELAEFEDSIATFEPSLQMYKGKGNPEVEALVAEAWAIFDELAAYRHN
notes: D domain, on phage
B17: SEQ ID NO: 570 (designed binder)
chain: MGSWSEFVDRLDAIFDRLWALGGSEAELAWFEDTIAHFEWNLQEYKGKGNPEVEALNGEADAITDELHAYRHN
notes: D domain, on phage
B18: SEQ ID NO: 546 (designed binder)
chain: MGSWNEFDDRLLAIWGRLDALGGSEAELAFFEEQIAGFEDELQWYKGKGNPEVEALDQEAEAIEKELWAYRHN
notes: D domain, on phage
B19: SEQ ID NO: 569 (designed binder)
chain: MGSWNEFVERLSAIDHRLWALGGSEAELADFEQQIAEFEIHLQEYKGKGNPEVEALDFEADAIFDELLAYRHN
notes: D domain, on phage
B20: SEQ ID NO: 554 (designed binder)
chain: MGSWDEFYYRLVAITHRLHALGGSEAELAWFEDDIAGFEWDLQTYKGKGNPEVEALYKEAGAIGMELTAYRHN
notes: D domain, on phage
B21: SEQ ID NO: 581 (designed binder)
chain: MGSWYEFSSRLNAIDDRLWALGGSEAELAYFETDIADFESLLQWYKGKGNPEVEALLNEADAIDYELYAYRHN
notes: D domain, on phage
B22: SEQ ID NO: 580 (designed binder)
chain: MGSWIEFFHRLDAIQDRLDALGGSEAELAYFEWAIADFEHMLQLYKGKGNPEVEALQFEAFAIEGELYAYRHN
notes: D domain, on phage
B23: SEQ ID NO: 574 (designed binder)
chain: MGSWYEFEDRLAAIWDRLNALGGSEAELAIFEWDIAWFEEGLQEYKGKGNPEVEALKHEASAIQTELFAYRHN
notes: D domain, on phage
B24: SEQ ID NO: 579 (designed binder)
chain: MGSWEEFDYRLYAIQDRLYALGGSEAELAFFEWEIADFEHMLQMYKGKGNPEVEALFQEADAIDAELHAYRHN
notes: D domain, on phage
B25: SEQ ID NO: 548 (designed binder)
chain: MGSWTEFDDRLFAIYWRLDALGGSEAELAWFEEVIAEFENDLQVYKGKGNPEVEALDDEAHAISIELEAYRHN
notes: D domain, on phage
B26: SEQ ID NO: 545 (designed binder)
chain: MGSWYEFDHRLEAIYDRLWALGGSEAELAFFEFDIADFEWDLQSYKGKGNPEVEALFDEAAAIGHELLAYRHN
notes: D domain, on phage
B27: SEQ ID NO: 575 (designed binder)
chain: MGSWLEFESRLWAIWDRLDALGGSEAELAHFEQDIADFEMSLQEYKGKGNPEVEALIREAEAIETELYAYRHN
notes: D domain, on phage
B28: SEQ ID NO: 583 (designed binder)
chain: MGSWLEFEYRLDAIYDRLFALGGSEAELAAFEQDIADFEKYLQYYKGKGNPEVEALWEEADAIMWELFAYRHN
notes: D domain, on phage
B29: SEQ ID NO: 577 (designed binder)
chain: MGSWFEFTIRLEAIQDRLDALGGSEAELAWFEWDIAEFEEGLQFYKGKGNPEVEALHTEADAIMNELVAYRHN
notes: D domain, on phage
B30: SEQ ID NO: 568 (designed binder)
chain: MGSWYEFDDRLWAIFDRLFALGGSEAELAFFEDSIAEFEEELQHYKGKGNPEVEALYLEAWAIENELGAYRHN
notes: D domain, on phage
B31: SEQ ID NO: 549 (designed binder)
chain: MGSWSEFDQRLEAIWNRLDALGGSEAELADFEREIAYFENQLQWYKGKGNPEVEALNNEAFAIVDELGAYRHN
notes: D domain, on phage
B32: SEQ ID NO: 556 (designed binder)
chain: MGSWREFDQRLWAIDWRLEALGGSEAELAMFEWMIATFEDDLQWYKGKGNPEVEALYREAFAIDWELDAYRHN
notes: D domain, on phage
B33: SEQ ID NO: 547 (designed binder)
chain: MGSWVEFDDRLDAIWERLDALGGSEAELAWFEEQIAVFEHQLQDYKGKGNPEVEALNQEAEAIDLELKAYRHN
notes: D domain, on phage
B34: SEQ ID NO: 563 (designed binder)
chain: MGSWEEFHWRLGAIDARLEALGGSEAELAWFEDGIADFEAILQDYKGKGNPEVEALDSEAVAIHHELWAYRHN
notes: D domain, on phage
B35: SEQ ID NO: 544 (designed binder)
chain: MGSWEEFDKRLDAITRRLMALGGSEAELAEFESTIAWFEWDLQEYKGKGNPEVEALDWEAYAIDYELGAYRHN
notes: D domain, on phage
B36: SEQ ID NO: 552 (designed binder)
chain: MGSWYEFESRLEAIWWRLEALGGSEAELAQFEQYIADFEQHLQWYKGKGNPEVEALDWEADAIWLELQAYRHN
notes: D domain, on phage
B37: SEQ ID NO: 550 (designed binder)
chain: MGSWYEFDERLWAIWERLDALGGSEAELAHFEWVIADFENDLQWYKGKGNPEVEALEFEAEAIVTELHAYRHN
notes: D domain, on phage
B38: SEQ ID NO: 557 (designed binder)
chain: MGSWEEFHERLDAIDERLEALGGSEAELAFFEDDIASFEDWLQWYKGKGNPEVEALSREADAINFELEAYRHN
notes: D domain, on phage
B39: SEQ ID NO: 573 (designed binder)
chain: MGSWTEFEERLEAIWDRLYALGGSEAELAAFEWDIAYFEDGLQEYKGKGNPEVEALFMEAEAIIRELKAYRHN
notes: D domain, on phage
B40: SEQ ID NO: 558 (designed binder)
chain: MGSWNEFYERLEAIDRRLFALGGSEAELALFEWMIADFEDDLQMYKGKGNPEVEALINEAGAIGFELEAYRHN
notes: D domain, on phage

This test concerns the target T1, recombinant human CD123-Fc. Kind of test: phage ELISA, captured CD123-Fc. In short, it runs like this: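 Phage from BCMA panning colonies were rescued with VCSM13 helper phage and diluted 5× in blocking buffer. Plates coated with anti-human IgG1-Fc captured 5 nM target-Fc or IgG1-Fc, and binding was detected with HRP anti-M13. Ratio = A450 target/A450 IgG1-Fc, averaged over the clone's wells.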
For B1, the ELISA_avg was 6.4 ratio A450 target/IgG1-Fc.
On to B2, for which the ELISA_avg amounted to 3.6 ratio A450 target/IgG1-Fc.
Then B3, with 6.7 ratio A450 target/IgG1-Fc; and B4, with 3.7 ratio A450 target/IgG1-Fc.
Take B5: the ELISA_avg was 3.2 ratio A450 target/IgG1-Fc.
Then B6, with 4 ratio A450 target/IgG1-Fc; and B7, with 3.2 ratio A450 target/IgG1-Fc; and B8, with 3.6 ratio A450 target/IgG1-Fc.
Take B9: the ELISA_avg worked out at 4.4 ratio A450 target/IgG1-Fc.
Turning to B10, the ELISA_avg turned out to be 3.1 ratio A450 target/IgG1-Fc.
As to B11, the ELISA_avg was determined as 4.5 ratio A450 target/IgG1-Fc.
As for B12, the ELISA_avg amounted to 3.2 ratio A450 target/IgG1-Fc.
Then B13, with 3.9 ratio A450 target/IgG1-Fc; and B14, with 3.8 ratio A450 target/IgG1-Fc; and B15, with 4.4 ratio A450 target/IgG1-Fc.
Regarding B16, the ELISA_avg came out at 3.6 ratio A450 target/IgG1-Fc.
B17: the ELISA_avg was found to be 5.3 ratio A450 target/IgG1-Fc.
Then B18, with 4.1 ratio A450 target/IgG1-Fc; and B19, with 3.2 ratio A450 target/IgG1-Fc.
As for B20, the ELISA_avg was 5.4 ratio A450 target/IgG1-Fc.
As to B21, the ELISA_avg is 3.8 ratio A450 target/IgG1-Fc.
B22: the ELISA_avg amounted to 3.5 ratio A450 target/IgG1-Fc.
Then B23, with 6.4 ratio A450 target/IgG1-Fc; and B24, with 4.4 ratio A450 target/IgG1-Fc.
Then B25, with 6.4 ratio A450 target/IgG1-Fc; and B26, with 4.5 ratio A450 target/IgG1-Fc; and B27, with 3.4 ratio A450 target/IgG1-Fc.
Then B28, with 3.1 ratio A450 target/IgG1-Fc.
Regarding B29, the ELISA_avg worked out at 3.5 ratio A450 target/IgG1-Fc.
Then B30, with 4.7 ratio A450 target/IgG1-Fc.
Regarding B31, the ELISA_avg amounted to 3.4 ratio A450 target/IgG1-Fc.
Then B32, with 3.4 ratio A450 target/IgG1-Fc; and B33, with 5 ratio A450 target/IgG1-Fc.
Take B34: the ELISA_avg was determined as 3.3 ratio A450 target/IgG1-Fc.
For the molecule B35, the ELISA_avg stood at 4.5 ratio A450 target/IgG1-Fc.
Turning to B36, the ELISA_avg turned out to be 4.4 ratio A450 target/IgG1-Fc.
Turning to B37, the ELISA_avg turned out to be 3.6 ratio A450 target/IgG1-Fc.
Then B38, with 4.3 ratio A450 target/IgG1-Fc; and B39, with 5.9 ratio A450 target/IgG1-Fc.
B40: the ELISA_avg came to 5.2 ratio A450 target/IgG1-Fc.

Values taken from patent publication US20230125550A1 (ARCELLX, published 2023).
